This data set addresses NS1A(1-73), NS1 protein N-terminal dsRNA-binding domain (Influenza A virus (A/Udorn/72)?, UniProt B4URE2 SEQ:1-73).

Sequence of NS1A(1-73), NS1 protein N-terminal dsRNA-binding domain (B4URE2 1-73): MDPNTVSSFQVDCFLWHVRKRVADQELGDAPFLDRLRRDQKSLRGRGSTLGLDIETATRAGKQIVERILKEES

B1: 16-bp dsRNA (RR) (dsRNA)
RNA 1: CCAUCCUCUACAGGCG
RNA 2: CGCCUGUAGAGGAUGG
As for B1, binding was characterised by a dissociation constant (Kd) of 748 nM.

Values taken from patent US20100081126, “PROCESS FOR DESIGNING INHIBITORS OF INFLUENZA VIRUS STRUCTURAL PROTEIN-1” (RUTGERS, THE STATE UNIVERSITY OF NEW JERSEY, published 2010).
